Tested on: Escherichia coli TOP10
Experiment: shrunken log2 fold change of peptide-encoding DNA abundance (4.5 h post-induction vs induction); higher = less antimicrobial activity (less host growth inhibition)
Conditions: time post-induction: 4.5 h; library: site-saturation at positions 5, 18, 19, 20
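Note: peptides expressed intracellularly from a pBAD plasmid library in pooled LB shake-flask culture, induced with 0.3% L-arabinose, DNA abundance read by NGS, three biological replicates, DESeq2 with apeglm shrinkage.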

| Sequence | shrunken log2 fold change |
| --- | --- |
| RRIRYRPPRLPRPRPRPWVHPRP | -0.701 |
| RRIRARPPRLPRPRPRPFMPPRP | -0.149 |
| RRIRSRPPRLPRPRPRPQLMPRP | -0.1 |
| RRIRLRPPRLPRPRPRPMGEPRP | 0.136 |
| RRIRKRPPRLPRPRPRPHGPPRP | 0.0129 |
| RRIRIRPPRLPRPRPRPWLIPRP | 0.0717 |
| RRIRHRPPRLPRPRPRPKTAPRP | 0.0497 |
| RRIRWRPPRLPRPRPRPLFRPRP | -0.0807 |
| RRIRNRPPRLPRPRPRPMYIPRP | -1.03 |
| RRIRKRPPRLPRPRPRPSRSPRP | 0.0164 |
| RRIRARPPRLPRPRPRPIYMPRP | -0.11 |
| RRIRGRPPRLPRPRPRPAPDPRP | 1.07 |
| RRIRYRPPRLPRPRPRPRKCPRP | -0.247 |
| RRIRYRPPRLPRPRPRPDTTPRP | 0.0425 |
| RRIRGRPPRLPRPRPRPIMYPRP | 0.0639 |
| RRIRFRPPRLPRPRPRPQFLPRP | -0.236 |
| RRIRRRPPRLPRPRPRPTMPPRP | 0.438 |
| RRIRIRPPRLPRPRPRPFTIPRP | -0.246 |
| RRIRMRPPRLPRPRPRPVKNPRP | 0.00715 |
| RRIRWRPPRLPRPRPRPDTCPRP | -0.0059 |
| RRIRCRPPRLPRPRPRPISPPRP | 0.153 |
| RRIRTRPPRLPRPRPRPDFMPRP | -0.15 |
| RRIRLRPPRLPRPRPRPNCAPRP | 0.415 |

| Sequence | shrunken log2 fold change |
| --- | --- |
| RRIRQRPPRLPRPRPRPPEYPRP | -0.245 |
| RRIRVRPPRLPRPRPRPPHFPRP | 0.696 |
| RRIRLRPPRLPRPRPRPSNWPRP | -0.196 |
| RRIRMRPPRLPRPRPRPMQPPRP | -0.000921 |
| RRIRKRPPRLPRPRPRPKDEPRP | 0.0833 |
| RRIRWRPPRLPRPRPRPKKHPRP | 0.293 |
| RRIRFRPPRLPRPRPRPQDCPRP | 0.00177 |
| RRIRWRPPRLPRPRPRPDRMPRP | 0.0163 |
| RRIRHRPPRLPRPRPRPYLRPRP | -0.173 |
| RRIRYRPPRLPRPRPRPHFTPRP | -0.817 |
| RRIRMRPPRLPRPRPRPMPRPRP | 0.561 |
| RRIRKRPPRLPRPRPRPLDDPRP | 0.227 |
| RRIRHRPPRLPRPRPRPCSSPRP | 0.032 |
| RRIRFRPPRLPRPRPRPPIRPRP | -0.0123 |
| RRIRRRPPRLPRPRPRPVQHPRP | -0.0478 |
| RRIRGRPPRLPRPRPRPGLRPRP | 0.875 |
| RRIRCRPPRLPRPRPRPQIEPRP | -0.335 |
| RRIRFRPPRLPRPRPRPVSSPRP | -0.371 |
| RRIRWRPPRLPRPRPRPCSWPRP | 0.0533 |
| RRIRDRPPRLPRPRPRPAGHPRP | 0.261 |
| RRIRVRPPRLPRPRPRPVGEPRP | 0.305 |
| RRIRVRPPRLPRPRPRPFNSPRP | -0.00973 |
| RRIRRRPPRLPRPRPRPVVIPRP | 0.0625 |

| Sequence | shrunken log2 fold change |
| --- | --- |
| RRIRYRPPRLPRPRPRPIDRPRP | -0.017 |
| RRIRNRPPRLPRPRPRPQCRPRP | -0.132 |
| RRIRFRPPRLPRPRPRPMCEPRP | -0.236 |
| RRIRTRPPRLPRPRPRPTDYPRP | -0.263 |
| RRIRCRPPRLPRPRPRPVQKPRP | -0.0201 |
| RRIRTRPPRLPRPRPRPNVNPRP | 1.5 |
| RRIRRRPPRLPRPRPRPQTCPRP | 0.247 |
| RRIRYRPPRLPRPRPRPVGTPRP | 0.238 |
| RRIRWRPPRLPRPRPRPPPCPRP | 0.638 |
| RRIRIRPPRLPRPRPRPTMYPRP | -0.769 |
| RRIRARPPRLPRPRPRPKRKPRP | 0.654 |
| RRIRVRPPRLPRPRPRPNYVPRP | -0.254 |
| RRIRKRPPRLPRPRPRPGRPPRP | 0.857 |
| RRIRKRPPRLPRPRPRPIKWPRP | 0.00487 |
| RRIRTRPPRLPRPRPRPRDWPRP | 0.483 |
| RRIRMRPPRLPRPRPRPVHHPRP | 0.00757 |
| RRIRCRPPRLPRPRPRPGHLPRP | -0.0824 |
| RRIRIRPPRLPRPRPRPNRCPRP | -0.154 |
| RRIRRRPPRLPRPRPRPNLPPRP | 0.0123 |
| RRIRPRPPRLPRPRPRPPYWPRP | -0.123 |
| RRIRGRPPRLPRPRPRPPNAPRP | 1.35 |
| RRIRCRPPRLPRPRPRPFTHPRP | -0.818 |
| RRIRWRPPRLPRPRPRPSHPPRP | -0.0699 |

| Sequence | shrunken log2 fold change |
| --- | --- |
| RRIRLRPPRLPRPRPRPHHEPRP | 0.0418 |
| RRIRQRPPRLPRPRPRPPNKPRP | 0.116 |
| RRIRRRPPRLPRPRPRPGRIPRP | 0.0214 |
| RRIRERPPRLPRPRPRPDRIPRP | -0.311 |
| RRIRHRPPRLPRPRPRPYEHPRP | -1.01 |
| RRIRWRPPRLPRPRPRPWWAPRP | -0.194 |
| RRIRARPPRLPRPRPRPPQLPRP | 0.753 |
| RRIRGRPPRLPRPRPRPCIGPRP | -0.143 |
| RRIRLRPPRLPRPRPRPNPSPRP | 0.104 |
| RRIRFRPPRLPRPRPRPLEHPRP | 0.0403 |
| RRIRIRPPRLPRPRPRPIECPRP | -0.314 |
| RRIRKRPPRLPRPRPRPNLLPRP | -0.263 |
| RRIRCRPPRLPRPRPRPRWIPRP | 0.0454 |
| RRIRERPPRLPRPRPRPIFKPRP | 0.138 |
| RRIRRRPPRLPRPRPRPIPHPRP | 0.822 |
| RRIRCRPPRLPRPRPRPHPGPRP | -0.156 |
| RRIRMRPPRLPRPRPRPPRGPRP | 1.17 |
| RRIRDRPPRLPRPRPRPQPLPRP | 0.194 |
| RRIRFRPPRLPRPRPRPFITPRP | -0.918 |
| RRIRPRPPRLPRPRPRPMKWPRP | 0.291 |
| RRIRDRPPRLPRPRPRPSGKPRP | -0.24 |
| RRIRVRPPRLPRPRPRPSCNPRP | -0.509 |

Reference: the supplement of paper PMC9112550, “Optimization of the antimicrobial peptide Bac7 by deep mutational scanning” (BMC Biology, 2022)
